Reference: publication PMC2288612, “The Mre11 protein interacts with both Rad50 and the HerA bipolar helicase and is recruited to DNA following gamma irradiation in the archaeon Sulfolobus acidocaldarius” (BMC Molecular Biology, 2008)

T1: Rad50 recombinant protein (Sulfolobus acidocaldarius) (S. acidocaldarius, UniProt O33600 1-886)
T1 construct: Rad50, Sulfolobus acidocaldarius, purified recombinant protein; source: recombinant, purified (Ni-NTA, gel filtration through Sephadex 200)
T1 sequence (looked up): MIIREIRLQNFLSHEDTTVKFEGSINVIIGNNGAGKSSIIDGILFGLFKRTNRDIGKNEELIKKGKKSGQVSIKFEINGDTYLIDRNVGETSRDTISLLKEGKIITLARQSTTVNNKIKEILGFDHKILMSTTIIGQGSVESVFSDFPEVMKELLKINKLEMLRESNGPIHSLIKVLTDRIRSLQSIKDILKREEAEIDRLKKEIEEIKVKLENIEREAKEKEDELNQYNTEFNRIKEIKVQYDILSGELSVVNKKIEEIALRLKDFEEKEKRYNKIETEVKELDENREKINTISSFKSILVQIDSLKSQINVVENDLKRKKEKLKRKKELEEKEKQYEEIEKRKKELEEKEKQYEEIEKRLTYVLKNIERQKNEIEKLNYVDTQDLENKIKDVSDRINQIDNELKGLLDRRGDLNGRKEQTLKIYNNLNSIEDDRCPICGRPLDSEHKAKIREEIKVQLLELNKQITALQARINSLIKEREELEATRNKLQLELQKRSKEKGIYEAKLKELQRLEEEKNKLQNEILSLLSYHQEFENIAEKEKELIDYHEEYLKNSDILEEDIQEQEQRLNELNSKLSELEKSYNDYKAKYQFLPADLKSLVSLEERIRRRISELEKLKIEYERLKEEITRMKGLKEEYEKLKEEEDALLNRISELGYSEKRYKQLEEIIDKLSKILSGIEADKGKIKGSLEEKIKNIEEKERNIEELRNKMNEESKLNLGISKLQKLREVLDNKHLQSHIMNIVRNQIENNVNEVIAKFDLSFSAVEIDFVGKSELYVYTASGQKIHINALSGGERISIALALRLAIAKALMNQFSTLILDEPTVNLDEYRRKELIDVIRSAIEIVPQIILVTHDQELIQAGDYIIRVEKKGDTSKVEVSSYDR

B1: HerA recombinant protein (Sulfolobus acidocaldarius) (natural protein, S. acidocaldarius, UniProt F2Z5Z6 1-495, looked up)
chain: MTIGYIIGSATINEATAILEQKIRAGYYVILEYDGDKILGLITNVYTGSPLLDDNLNDVKFVQRIKQLEANKIPFFIKARIKLLCKLDGKFTQPDLPPVAGTPVRLASDEELSTVFSAGDVRIGKLIGSNVEVKIRLNPLSRHLAILAATGSGKSNTVAILSQRLVEIGGSILIFDYHGEYYDSTLPNLNIIEPKLNPLYLSVNEFATLLEIRENANIQYRIIRRTFNQLKEEINNEIKEGKTSLAELNSNFFERLKVKIEEEGRNEKRKESKDEVLNKVEDFAERYSDIIDITFGDVINKIKLGKINVVNLSSLDEDAIDAIVAHYLRRILTSRKENKIKKDSGLKFPILTVVEEAHVLLSKDTNTLTKKWAGRIAREGRKFGVGLIIVSQRPKGLDENILSQMTNKIILKIVEPSDKKYVLETSDNLSEDLADGLSSLDTGEAIIIGNVVKLPTIIKIDKFEGKLSGSDPNLTEEWKRAKEEEIVHSDVSDWG
notes: HerA bipolar DNA helicase, Sulfolobus acidocaldarius, purified recombinant protein; also called HerA bipolar helicase
B2: Mre11 recombinant protein (Sulfolobus acidocaldarius) (natural protein, S. acidocaldarius, UniProt Q8NKQ0 1-382, looked up)
chain: MQLLHISDTHLGKRQYNLESREKDVYDTFTQLIDIAINEHVKAVIHTGDLFDVNNPPNRAKLHAIKELKRLKDHNIPFICIAGDHDSPKRKEEIYPQRILEEFNLIKILQKIDNRVKLENVEVYGISHISNVSVNDLKEQLSKVKPETRKSILMLHQGIRTYLPYQGAWQIELSDLPKGFSLYAVGHLHSRRKDYLDGGALIEIAGSPDIMREEEIEDYQKSKKGATLIDMSGDLPSINYINVNIRDQLVLDINVDKIEQSIESVIQKLKENVKNDKKPILHIELEGTVPIRKDVLMTKLQALRDYVEHYRIYKNNIVSIKEENLKTKLKTTYSSLNDIIADYLKGIGYTDEETKIIIDIINEEDEKKVEELLKKFAGVEDK
notes: Mre11, Sulfolobus acidocaldarius, purified recombinant protein; source: recombinant, purified (Ni-NTA, gel filtration through Sephadex 200)

Target: T1, Rad50 recombinant protein (Sulfolobus …)
Test: co-IP; anti-Rad50 purified IgGs and protein A-sepharose on a mixture of purified recombinant proteins (60 nM Rad50, Mre11 and NurA, 300 nM HerA) in IP buffer (20 mM Hepes pH 7.5, 100 mM NaCl, 15 mM MgCl2, 5 mM beta-mercaptoethanol); 4°C; immunoblot
Conditions: both partners purified

Binder | binding result
B1 | binds
B2 | binds
